# Source: the nanobody polyreactivity screen of Harvey et al. (2022)
# Experiment: yeast display, Sf9 membrane polyspecificity reagent, FACS + sequencing; frameworks hold sequencing errors
# How it was run: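 Synthetic nanobody libraries on Saccharomyces cerevisiae BJ5465 were galactose-induced for 36–48 hours, stained 1 hour at 4 °C with 10% biotinylated, detergent-solubilized Sf9 membrane reagent and enriched on streptavidin microbeads. FACS then separated cells into low and high (top ~1%) gates by anti-HA (expression) and streptavidin (reagent binding) fluorescence. Genes were colony-PCR amplified, MiSeq 2 × 250 sequenced and CDR-length filtered. A clone's polyreactivity label is that of its gate of origin.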
row,Sequence,polyreactivity (PSR sort gate)
1,QVQLVESGRGLVQAGGSLRLSCAASGRIFTHYAMGWYRQAPGKERELVAAITSSSGSTYYADSVKGRFTISRDNAKNTVYLPMISLKPEDTAVYYCAASRYGKNGKFHYWGQGTQVTVSS,high polyreactivity
2,QVQLVESGRGLVQAGGSLRLSCAASGRIFVSNVMGWYRQAPGKERELVATITIGGITYYADSVKGRFTISRDNAKNTVYLQMNSLKPEDTAVYYCAADRRRFSPYGLYIHPGFDYWGQGTQVTVSS,low polyreactivity
3,QVQLVESGRGLVQAGGSLRLSCAASGRTFDPYAMGWYRQAPGKERELVAAITSGDDTYYADSVKGRFTISRDYAKNTVYLQMNSLKPEHTAVYYCAADSFTPDYYYHDYWGQGTQVRVSS,low polyreactivity
4,QVQLVESGRGLVQAGGSLRLSCAASGRTFVYYAMGWYRQAPGKERELVAAISRSGSTYYADSVKGRFTISRDNAKNTVYLQMNSLKPEDTAVYYCARPGGPDRTSSPYPYPYGYWGQGTQVTVSS,low polyreactivity
5,QVQLVESGRGLVQAGGSLRLSCAASGSIFKNYAMGWYRQAPGKERELVAAITRGTYYADSVKGRFTISRDNAKNTVYLQMNSLKPEDTAVYDCYREYWGRGYYRVRGEYDYWGQGTQVTVSS,low polyreactivity
6,QVQLVESGRGLVQAGGSLRLSCAASGSIFSYYAMGWYIQAPGKERELVAAITVRGGSTYYADSVKGRFTISRDNAKNTVYLQMNSLKPEDTAVYYCAAVPGYTHLWGGPFDYWGQGTQVTVSS,low polyreactivity
7,QVQLVESGRGLVQAGGSLRLSCAASGSILTYYTMGWYRQAPGKERELVAAITRRGGSTYYADSVKGRFTISRDNAKNTVYLQMNRLKPEDTAVYYCNRVLSYHRHKLGMGYWGQGTHVTVSS,high polyreactivity
8,QVQLVESGRGLVQAGGSLRLSCAASGSTFAGYVMGWYRQAPGKERELVAAISGRGGNTYYADSVKGRFTISRDNAKNTVYIQINSLKPADTAVYYCAANLSRRYGYWGQGTQVTVSS,high polyreactivity
9,QVQLVESGRGLVQAGGSLRLSCAASGSTFWNNGMGWYRQAPGKERELVAAINWSGDSTYYADSVKGRFTISRDNAKNTVYLQMNSLKPEDTAVYYCAAGYYTYSRRSSFFVAYGYWGQGTQVTVSS,low polyreactivity
10,QVQLVESGRGLVQAGGSLRLSCADSGRTFGYYGMGWYRQAPGKEREFVAAITRSGGSTYYADSVKGRFTISRDHAKNTVYLQMNSLKPEDTAVYYCAAAHLFTRSRPYDYWGQGTQVTVSS,high polyreactivity
11,QVQLVESGRGLVQAGGSLRLSCAPSGFTFNVNAMGWYRQAPGKERELVAAISSSGTRTYYADSVKGRFTISRDNAKNTFYLQMNSLKPEDTAVYYCGASGQAYSGDRMYYWGQGTQVTVSS,high polyreactivity
12,QVQLVESGRGLVQAGGSLRLSCASSGSIKQNAMGWNRQAPGKETELVAAIDWDGSSTYYADSVKGRFTISRDNAKNTVYLQMNSLKPEDTAVYYCAKGWYRIKRNDYWGQGTQVTVSS,low polyreactivity
13,QVQLVESGRGLVQAGGSLRLSCDASGFIFPWYAMGWYRQAPGKERELVAAITSGGSTTYADSVKGRFTISRDNAKNTVYLQMNSLKPEDTAVYYCAAAYPWGDYGVSDYDYWGQGTQVTVSS,high polyreactivity
14,QVQLVESGRGLVQAGRTLRLSCAASGFIFQWYTMGWYRQAPGKDRELVADIRSGGDTNYADSVKGRFTISRDTAKNSVYLQMYSLKPEDTAVYYCATETFFPLRRASYGRKLGYWGQGTQVTVSS,low polyreactivity
15,QVQLVESGRGLVQAGVSLRLSCAASGSIFEQYAMGWYRQAPGKERELVAAITISGGGTFYADSVKGRFTISRDNAKNTVYLQMNSLKPEDTAVYYCAKRGYYFWSRKYGYWGQGTQVTVSS,low polyreactivity
16,QVQLVESGRGLVQEGGSLRLSCAASGRNVVFYTMGWNRQEPVKERELVATISIRGSTYYADSVKGRFTISRDNAKNTVYLKMNSLKPEDTAVYYCAAVYYSYYSFSYNYWGQGTVVTVSS,low polyreactivity
17,QVQLVESGVGIGQAGGSLRLTCAASGRTVSKYGKGWYRHAPGKEREMVAAISGRGGSTYYADSVKGRFTISRDHAKNTVYLQMNSLNPEDNAVYYCAQDLSYRPHGHGDGHYDFWGQGTQVTVSS,low polyreactivity
18,QVQLVESGVGIVQAGGSLRLSCAASGSTYGYNAMGWYRQAPGKESEFVARIRSSGSTTYADSVKRRFTISRDNAMNTVYLLMNSLNPEDNAVYYWAARRYFYLVVYYSWGQCTQVTVSS,high polyreactivity
19,QVQLVESGVGIVQAGGSLRLSSAPSGRTFTWYAMGRTRQAPGKERELVAAITNGGRTYADSVKGRFTISRDNAKNTVYLQMNSLKPEDTAVYYCAKVQYRGYLPHQRGRERDYDYWGQGTQVTVSS,low polyreactivity
20,QVQLVESGVGIVQAGGSLRVSCAASGRIFYYYAMGWYRHAPGKERELVAVINSGDSTNYADSVKGRFTISRDNAKNSVYFQMNSLKPEDTAVYYCAKGVISDLDYWADYDYWGQGTQVSVSS,low polyreactivity
21,QVQLVESGVGLFQAGGSLRLSCAASGRIFTLYTMGWYRQAPGKEREFVAALSRTGGRTYYADSVKGRFTISRDNAKNTVYLQMNSLKPEDTAVYYCAARSQSYTTHRYYYWGQGSQVTVSS,high polyreactivity
22,QVQLVESGVGLFQAGGSLRLSCAPSGSTFIGYAMEWYRQAPGKERELVAAISWSGGRTYYADSVKGRFTISRDNAKNTVYLQMISLKPEDTAVYYCNTVPYRISVQFNYWGQGTQVTLSS,high polyreactivity

row,Sequence,polyreactivity (PSR sort gate)
1,QVQLVESGVGLLQAGGSLRLSCADSGRIISGNAMVWYRQAPGKEREMVAAISSGGSTYYADSVKGRFTISRDNAMNTVYLQMNSLKPEATAVFYCNKRRGRKWPGNFSVVKLLMGSWGQGTQVTVSS,low polyreactivity
2,QVQLVESGVGLVQAAGSLRLSCAASGSTFSSYAMGWYRQAPGKERELVAVISSRGSRTYYADSVKGRFTNSRDNAKNSVYLLMNSLKPEDTAVYYCAARAVKQYGNSYESWGQGTQVTVSS,high polyreactivity
3,QVQLVESGVGLVQAGGRLRLSCAASGLIFNDNMGWYRQSPGKEREVVAAISSSGGSTSYADSVKGRFTISRDNAKNTVYLQMNSLKPEDTAVYYCAADSYPAYLGFVGFDYWGQGTQVTVSS,low polyreactivity
4,QVQLVESGVGLVQAGGRLRLSCAASGRIIYIYAMGWYRQAPGKERELVAAITASSGSTNYADSVKGRFTISRDNAKNTVYLQMNSLKPEDTAVYYCSAAPSRTLLRQTKYYYWGQGTQVTVSS,low polyreactivity
5,QVQLVESGVGLVQAGGSLGLTCAASGSIFYRYTMGWYREAPGKERELVAAISSDGDSTYYADSVKGRFTISRDNAKNTVYLQMNSLKPEDTAVYYCAADLEPYIGYHFYYWGQGTQVTVSS,low polyreactivity
6,QVQLVESGVGLVQAGGSLRFSCAASAMGWSRQAPGKERELVAVINSTGGSTYYADSVKGRFTISRDNAKNTVYLQMNSLKPDATAVYYCARVTRRGPGYTTLYSRYDYWGQGTQVSVSS,low polyreactivity
7,QVQLVESGVGLVQAGGSLRLICAASGFTFAKYAMGWYRQAPGKERELVAAISRSAGSTYYADSVKGRFTISRDYAKNTVYLQMNSLIPDDTAVYYCAADPLIYDDYYWGQGSQVTVSS,high polyreactivity
8,QVQLVESGVGLVQAGGSLRLICAASGSTFGYYAMGWYRQAPGKERELVAAITGRGGSTYYADSVKGRFTISRDNAKNTVYLQMNSLKPEDTAVYYCAVGKYRLYYSGAYGFWGQGTQVTVSS,high polyreactivity
9,QVQLVESGVGLVQAGGSLRLRCAASGFTFRYYAMGWNRQAPGKERELVATMSSAGTTNYADSVKGRFTISRDNAKNTVYLPMNSLKPEDTAVYYCAKDLYYRHWRGGFWGQGTQVTVSS,low polyreactivity
10,QVQLVESGVGLVQAGGSLRLSCAACGSTFPINAMGWYRQAPGKESELVAAISWSAGSTHYADSVKGRFTISRDNAKNTVYLQMNSLKPEDTAVYYCAAETWGLGDYWGLGTQVTVSS,low polyreactivity
11,QVQLVESGVGLVQAGGSLRLSCAASGFIFNYNTMGWYRQAPGKERELVAAISSSGGSTYYADSVKGRFTISRDNAKNTVYLQMNSLKPEDTAVYYCAAGANAQRVPNGDYWGQGTQVTVSS,low polyreactivity
12,QVQLVESGVGLVQAGGSLRLSCAASGFIFRYYTMGWYRPAPGKERELVAVITSGGTTYYADSVKGRFTISRDNAKNTVYLHMNSLIPEDTAVYYCAADYRPRLYGVGVDYWGQGSQVTVSS,low polyreactivity
13,QVQLVESGVGLVQAGGSLRLSCAASGFIFSSYAMGWYRQAPGKERELVAAISRSGGRTYYADSVKGRFTISRDNAKNTVYLQMNSLKPEDTAVYYCDATWLGTDGDDYWGQGTQVTVSS,high polyreactivity
14,QVQLVESGVGLVQAGGSLRLSCAASGFISVNNAMGWYRQAPGKERELVAAITDTDDSTYADSVKGRFTISRDNAKNTVYLQMNSLKPEDTAVYYCAAGIIYSNEPNITSYDYWGQGTQVTVSS,low polyreactivity
15,QVQLVESGVGLVQAGGSLRLSCAASGFTFGDNAMGWYRQAPGKERELVADITSSGSTNYADSVKGRFTISRDNAKNTVYLQMNSLKPEDTAVYYCNAVDSVDAPVYKDLGSEYDSWGQGTQVTVSS,low polyreactivity
16,QVQLVESGVGLVQAGGSLRLSCAASGFTFPSYTMGWYRQAPGKERELVAAITSGGITYYADSVKGRFTISRDNANYTVYLQMNSLKPEDTAVYYCAVVNFRTSVYYPYRTMDYWGQGTQVTVSS,high polyreactivity
17,QVQLVESGVGLVQAGGSLRLSCAASGGTFGYYVMGWYRQATGKESELVAAITSGGSTKYADSVKGRFTISRDNAKNTVYLQMNSLNPEDTAVYYCAADVTRREPYQSYDFWGQGTQVTVSS,low polyreactivity
18,QVQLVESGVGLVQAGGSLRLSCAASGIIFGFYAMGWYRQAPGKERELVAAISVSGGSTNYADSVKGRFTISRDNAKNTVYLQMNSLKPEDTAVYYCAARVRDSLVYGGWDDYWGQGTQVTVSS,high polyreactivity
19,QVQLVESGVGLVQAGGSLRLSCAASGITFNVNAMGWYRQAPGKERELVARITTSGGSTSYADSVKGRFTISRDNAKNTVYLQMNSLKPEDTAVYYCAADRARYYSEYDYWGQGTQVTVSS,low polyreactivity
20,QVQLVESGVGLVQAGGSLRLSCAASGLIFPYYAMGWYRQAPGKERELVAAITSGSGTYYADSVKGRFTISRDNGKNTVYIQMNSLKPEDTAVYYCNAYILFWEYGYWGQGTQVTVSS,high polyreactivity
21,QVQLVESGVGLVQAGGSLRLSCAASGLIIYAYVMGWYRQAPGKERELVATISRSGARTHYADSVKGRFTISRDNAKNTVYLQMNSLKPEDTAVYYCAADVYLSSYEKYGYWGQGTQVTVSS,high polyreactivity
